One series concerns the target T1, Arp2/3 complex.
T1 construct: from tissue
The series is described as follows: Actin polymerization assay comparing FL-WASP/N-WASP and truncated forms of WASP. The series is classed as biochemical, human. To be noted: without activators, FIG. 7. How it is done:
1. A cellular extract containing Arp2/3 complex was prepared from an Arp2/3 source such as human platelets (see, e.g., U.S. Provisional Application No. 60/578,969, filed Jun. 10, 2004; Welch and Mitchison (Meth. Enzymology 298:52-61,1988); and Higgs, H. N. et al. (Biochemistry 38:15212-15222, 1999), all of which are incorporated herein by reference in their entirety for all purposes).
Samples containing candidate agents (individually or as mixtures) are placed into wells on a multi-well plate. Mix 1 is added to each of the wells and mixed with the candidate agent. A sample of Mix 2 is then introduced into each well and the resulting mixture thoroughly mixed. Typically, Mix 1 and Mix 2 are mixed in 1:1 ratio (e.g., 50 μl each of Mix 1 and Mix 2).
Actin polymerization is measured as a function of time by exciting pyrene at 365 nm and by detecting an increase in fluorescence emission at 407 nm, or by exciting acrylodan at 405 nm and by detecting an increase in fluorescence emission at 460 nm. The change in fluorescence over time is utilized to determine a fluorescence parameter (e.g., maximal velocity, time to half maximal fluorescence intensity, or area under the curve of a plot of fluorescence versus time; see e.g., FIGS. 5A-5F).
Arp2/3 was purified as described in Example 1. […]

In the next series the target is Arp2/3. The series can be described thus: Activities of WASP/N-WASP proteins (Table 4). The format is biochemical. The source says: The term “variant” or “analogue” generally refers to proteins that are functional equivalents to a native sequence that have similar amino acid sequences and retain, to some extent, one of the activities of the corresponding native protein. Variants/analogues include fragments that retain one or more activities of the corresponding native protein. Examples of WASP and N-WASP activity include, but are not limited to, capacity to: 1) bind Arp2/3 and actin; 2) activate the actin nucleation activity of Arp2/3 (descriptions of assays to detect nucleation activity are provided below); 3) bind an upstream regulator; 4) be regulated by one or more upstream regulators, thereby rendering the WASP or N-WASP protein able to activate the nucleation activity of Arp2/3; and 5) bind downstream regulators initiating signal transduction cascades. Some of the WASP and N-WASP proteins that are provided are able to recapitulate the full activity of WASP or N-WASP, which means that these proteins have all five of the activities just listed. […]
A third class of NPF proteins that can be utilized in some assays include WASP, N-WASP and SCAR proteins that include the WH1 domain but in which the PolyPro region is (e.g., deleted). A fourth class of NPF proteins that can be utilized in some assays are WASP, N-WASP and SCAR deletion mutants in which the PolyPro region is maintained but an N-terminal region (e.g., WH1 domain) is at least partially removed. Some proteins in this class are ones that include the B, CRIB/GBD (WASP and N-WASP), PolyPro and VCA domains, but in which some or all of the WH1 has been removed. One specific example is 98N-WASP, which includes amino acids 98-501 of SEQ ID NO:4. Another specific example is the 105WASP protein, which includes amino acids 105-501 of SEQ ID NO:2 (see FIG. 4B).
As indicated in this table, specific examples of fusion proteins that can be utilized include those that include a segment that encodes full-length WASP or N-WASP, including: Myc-WASP-TAP (SEQ ID NO:14); and Myc-N-WASP-TAP (SEQ ID NO: 16). Examples of fusion proteins that include a WASP or N-WASP deletion mutant domain include: GST-105WASP (SEQ ID NO:18); Myc-105WASP-TAP (SEQ ID NO:20); GST-tev-98N-WASP (SEQ ID NO:22); and Myc-98N-WASP-TAP (SEQ ID NO:24). The TAP tag in these particular fusion proteins has the general structure CBP-tev-ProtA (SEQ ID NO:36). Fusion proteins such as those listed in Table 4 can in some instances be utilized directly, or after one or both of the C- and N-terminal tags are removed. For example, the fusion proteins listed in Table 4 as having a TAP tag can be used once the TAP tag has been cleaved off and/or after the C-terminal tag has been removed.

Series [1] is described as follows: Solubility of purified full-length WASP / N-WASP. The series is classed as physicochemical. Conditions: purified TAP-tag protein from 293 cells.

B1: FL-N-WASP: full length human N-WASP (SEQ ID NO:4), nucleation promoting factor (protein, listed as Homo sapiens)
chain: MSSVQQQPPPPRRVTNVGSLLLTPQENESLFTFLGKKCVTMSSAVVQLYAADRNCMWSKKCSGVACLVKDNPQRSYFLRIFDIKDGKLLWEQELYNNFVYNSPRGYFHTFAGDTCQVALNFANEEEAKKFRKAVTDLLGRRQRKSEKRRDPPNGPNLPMATVDIKNPEITTNRFYGPQVNNISHTKEKKKGKAKKKRLTKADIGTPSNFQHIGHVGWDPNTGFDLNNLDPELKNLFDMCGISEAQLKDRETSKVIYDFIEKTGGVEAVKNELRRQAPPPPPPSRGGPPPPPPPPHNSGPPPPPARGRGAPPPPPSRAPTAAPPPPPPSRPSVAVPPPPPNRMYPPPPPALPSSAPSGPPPPPPSVLGVGPVAPPPPPPPPPPPGPPPPPGLPSDGDHQVPTTAGNKAALLDQIREGAQLKKVEQNSRPVSCSGRDALLDQIRQGIQLKSVADGQESTPPTPAPTSGIVGALMEVMQKRSKAIHSSDEDEDEDDEEDFEDDDEWED
modifications: (1)..(505) FL-N-WASP
For B1, in the series with Arp2/3 complex, the “stimulation of actin polymerization by the protein alone (in words)” value is on record as “weakly stimulate actin polymerization”. In the series with Arp2/3, the “Activate Arp2/3?” value is “Yes” and the “Regulated By Which Upstream Regulators?” value is given as “Cdc42, PIP2, Nck, Rac1”. In series [1], the “solubility (in words)” value was “completely soluble”.

Source of the values: US20060003399A1, “High throughput actin polymerization assay” (Cytokinetics, Inc., priority 2004, published 2006).
